Data as given in PMC8797792.
Square brackets hold non-standard residues; d marks the D form. Ends that are not written are not given here. pT = C[C@@H](OP(=O)(O)O)[C@H](N)C(=O)O; pS = N[C@@H](COP(=O)(O)O)C(=O)O

Biological target: GST-Fbw7 (residues 263 to 707)-Skp1 complex, Q969H0
Assay: AlphaScreen or HTRF

B1: Myc T58 degron peptide, diphosphorylated (pT58/pS62) (peptide)
peptide: EDIWKKFELLP[pT]PPL[pS]PSRR
Work on B1 yielded an IC50 of 9.8 nM.
